Source: PMC5892938, “SARNAclust: Semi-automatic detection of RNA protein binding motifs from immunoprecipitation data”
Changes are numbered by the printed parent chain.

B1: Consensus Loop Only A (CLA) (structured_RNA)
RNA: GGUCACGUCUCAAUCAACUCAUCCCCAGGAGUUUACUCCUGUUUAGUCAACAGCUCGCAGUCAAG
B2: Consensus Loop Only B (CLB) (structured_RNA)
RNA: B1 RNA with U22A, C24U, U43A, U44A, A45U, G46C
B3: consensus (structured_RNA)
RNA: GGUCACGUCUCAAUCAACUCCCAAAGGCCCUUCUCAGGGCCACCCAUCAACAGCUCGCAGUCAAG
B4: consensus (structured_RNA)
RNA: B3 RNA with C29U, C30U, C35A, G37A
B5: consensus (structured_RNA)
RNA: B3 RNA with C28U, C29U, C33U, C35A, G39A
B6: consensus (structured_RNA)
RNA: B3 RNA with C28U, C29U, C33U, G38A
B7: consensus (structured_RNA)
RNA: B3 RNA with C28U, C29U, C33U, C35A, G38A
B8: consensus (structured_RNA)
RNA: B3 RNA with C29U, C30U, G37A
B9: consensus (structured_RNA)
RNA: B3 RNA with C29U, C30U, C33U, C35U, G37A, G38A
B10: consensus (structured_RNA)
RNA: B3 RNA with C28U, C33U, C35U
B11: consensus (structured_RNA)
RNA: B3 RNA with C28U, C30U, C33U, C35U, G37A
B12: consensus (structured_RNA)
RNA: B3 RNA with C28U, C30U, G37A
B13: consensus (structured_RNA)
RNA: B3 RNA with C28U, C29U, C30U, C33U, C35A, G37A, G38A, G39A
B14: consensus (structured_RNA)
RNA: B3 RNA with C30U, C33U, C35A, G37A
B15: consensus (structured_RNA)
RNA: B3 RNA with C29U, C33U, C35G, G38A
B16: consensus (structured_RNA)
RNA: B3 RNA with C28U, C29U, C33U, C35U, G38A, G39A
B17: consensus (structured_RNA)
RNA: B3 RNA with C28U, C35G, G39A
B18: consensus (structured_RNA)
RNA: B3 RNA with C29U, C30U, C33U, C35G, G37A, G38A
B19: consensus (structured_RNA)
RNA: B3 RNA with C28U, C29U, C30U, G37A, G38A, G39A
B20: consensus (structured_RNA)
RNA: B3 RNA with C28U, C29U, G39A
B21: consensus (structured_RNA)
RNA: B3 RNA with C28U, C29U, C35A, G39A
B22: consensus (structured_RNA)
RNA: B3 RNA with C28U, C29U, C35A, G38A
B23: consensus (structured_RNA)
RNA: B3 RNA with C28U, C29U, G38A
B24: consensus (structured_RNA)
RNA: B3 RNA with C28U, C35U
B25: consensus (structured_RNA)
RNA: B3 RNA with C35A
B26: consensus (structured_RNA)
RNA: B3 RNA with C28U, C30U, C35G, G37A, G39A
B27: consensus (structured_RNA)
RNA: B3 RNA with C29U, C33U, C35U
B28: consensus (structured_RNA)
RNA: B3 RNA with C28U, C30U, C35U, G37A
B29: consensus (structured_RNA)
RNA: B3 RNA with C28U, C29U, C30U, C33U, G37A, G38A
B30: consensus (structured_RNA)
RNA: B3 RNA with C29U, C30U, C33U, C35U, G37A
B31: consensus (structured_RNA)
RNA: B3 RNA with C28U, C29U, C35U, G38A, G39A
B32: consensus (structured_RNA)
RNA: B3 RNA with C28U, C33U, C35G
B33: consensus (structured_RNA)
RNA: B3 RNA with C28U, C29U, C30U, C35A, G37A, G38A
B34: consensus (structured_RNA)
RNA: B3 RNA with C28U, C29U, C33U, C35U, G39A
B35: consensus (structured_RNA)
RNA: B3 RNA with C28U, C29U, C30U, C35U, G37A, G38A, G39A
B36: consensus (structured_RNA)
RNA: B3 RNA with C28U, C30U, C33U, G37A, G39A
B37: consensus (structured_RNA)
RNA: B3 RNA with C28U, C29U, C33U, C35U, G38A
B38: consensus (structured_RNA)
RNA: B3 RNA with C28U, C29U, C30U, C33U, C35A, G37A, G38A
B39: consensus (structured_RNA)
RNA: B3 RNA with C29U, C30U, C35G, G37A, G38A
B40: consensus (structured_RNA)
RNA: B3 RNA with C28U, C29U, C30U, C33U, C35U, G37A, G38A, G39A
B41: consensus (structured_RNA)
RNA: B3 RNA with C29U, C35G, G38A
B42: consensus (structured_RNA)
RNA: B3 RNA with C28U, C29U, C33U
B43: consensus (structured_RNA)
RNA: B3 RNA with C29U, C30U, C35U, G37A
B44: consensus (structured_RNA)
RNA: B3 RNA with C29U, C35U
B45: consensus (structured_RNA)
RNA: B3 RNA with C28U, C29U, C35A
B46: consensus (structured_RNA)
RNA: B3 RNA with C28U, C29U, C33U, C35A

What was measured:
[1] = target: T1, GST-SBP-SLBP (stem-loop binding protein) (Homo sapiens, UniProt Q14493 1-270); test: EMSA; 320 nM protein, 1 nM RNA, 1 mM Mg2+; EMSA: 10 mM HEPES pH 7.3, 20 mM KCl, 1 mM MgCl2, 20 mM DTT, 5% glycerol, 30 min, 4°C. RBNS: 25 mM Tris pH 7.5, 150 mM KCl, 0.1% Tween, 0.5 mg/mL BSA, 3 mM MgCl2, 1 mM DTT; conditions: protein: recombinant; tags: N-terminal GST and SBP (pGEX6P1-SBP); label: 3' biotin; hairpin
[2] = target: T1, GST-SBP-SLBP (stem-loop binding protein); test: targeted RNA Bind-n-Seq; RBNS binding buffer: 25 mM Tris pH 7.5, 150 mM KCl, 3 mM MgCl2, 0.1% Tween, 0.5 mg/mL BSA, 1 mM DTT; 27 nM protein, 750 pM RNA pool; temperature not stated; high values mean tight binding; conditions: protein: recombinant; tags: N-terminal GST and SBP (pGEX6P1-SBP)
Outline: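 Read counts per sequence supply the binding signal, defined as the DEseq fold change on a binary-logarithm scale. These counts came from RNA of a designed, T7-transcribed oligo pool at 750 pM that bound 27 nM of GST-SBP-tagged protein, made in Rosetta(DE3) pLysS E. coli and glutathione-purified, in RBNS binding buffer. The bound RNA was reverse transcribed with a 10-nucleotide barcoded primer, PCR-amplified and sequenced on a MiSeq with 200-cycle paired-end reads, then processed with FLASH and HISAT2 and collapsed by barcode.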

Binder	binding result [1]	binding signal [2] [log2 fold change]
B1	no binding	–
B2	no binding	–
B3	–	3.69 ± 0.158
B4	–	2.99 ± 0.126
B5	–	2.99 ± 0.127
B6	–	2.98 ± 0.121
B7	–	2.97 ± 0.121
B8	–	2.96 ± 0.136
B9	–	2.93 ± 0.199
B10	–	2.9 ± 0.135
B11	–	2.89 ± 0.126
B12	–	2.87 ± 0.126
B13	–	2.88 ± 0.264
B14	–	3.68 ± 0.122
B15	–	2.84 ± 0.154
B16	–	2.84 ± 0.113
B17	–	2.83 ± 0.137
B18	–	2.83 ± 0.141
B19	–	2.81 ± 0.12
B20	–	2.79 ± 0.125
B21	–	2.79 ± 0.124
B22	–	2.77 ± 0.139
B23	–	2.76 ± 0.132

Binder	binding result [1]	binding signal [2] [log2 fold change]
B24	–	2.76 ± 0.147
B25	–	3.65 ± 0.165
B26	–	2.75 ± 0.139
B27	–	2.74 ± 0.145
B28	–	2.73 ± 0.134
B29	–	2.7 ± 0.146
B30	–	2.7 ± 0.125
B31	–	2.63 ± 0.139
B32	–	2.63 ± 0.152
B33	–	2.61 ± 0.133
B34	–	2.58 ± 0.123
B35	–	2.59 ± 0.138
B36	–	3.61 ± 0.112
B37	–	2.54 ± 0.128
B38	–	2.53 ± 0.247
B39	–	2.53 ± 0.134
B40	–	2.51 ± 0.271
B41	–	2.5 ± 0.154
B42	–	2.49 ± 0.153
B43	–	2.45 ± 0.137
B44	–	2.44 ± 0.146
B45	–	2.42 ± 0.134
B46	–	2.44 ± 0.142
